Reference: patent US6673587B1, “Histone deacetylase, and uses therefor” (The Salk Institute for Biological Studies, priority 2000, dated 2004)

Biological target: T1, GAL DBD-SMRT (RD III+IV), pGBT9-hSMRT (1060-1831) (human, UniProt P04386 1-147; Q9Y618 1060-1831)
T1 construct: domain: GAL DBD;range 1060-1831; Bait of the yeast two-hybrid screen and assays in strain Y190; also called SMRT repression domains III and IV; SMRT RD III and IV
Experiment: yeast two-hybrid, growth on -Trp-Leu-His+40 mM 3-AT plates
Description: (Verdel and Khochbin, 1999, supra)). A series of AD-HDAC constructs were generated for interaction assays in yeast. Transformants harboring both plasmids were picked and patched onto nutrient selection plates. Only cells that contain plasmids carrying an interacting partner are able to activate reporter gene HIS3 and therefore are viable in the selection plate -Trp-Leu-His+40 mM 3-AT. […] After three days, two isolated colonies were picked, resuspended in water, and […] were dropped on both -Trp-Leu and -Trp-Leu-His+40 mM 3-AT plates. Pictures were taken after three days.

| Binder | binding result |
| --- | --- |
| AD-HDAC1 (deacetylase domain of HDAC1, GAL AD fusion) (enzyme, UniProt Q13547 9-321, looked up, not shown: large carriers, domain: deacetylase domain) RKVCYYYDGDVGNYYYGQGHPMKPHRIRMTHNLLLNYGLYRKMEIYRPHKANAEEMTKYHSDDYIKFLRSIRPDNMSEYSKQMQRFNVGEDCPVFDGLFEFCQLSTGGSVASAVKLNKQQTDIAVNWAGGLHHAKKSEASGFCYVNDIVLAILELLKYHQRVLYIDIDIHHGDGVEEAFYTTDRVMTVSFHKYGEYFPGTGDLRDIGAGKGKYYAVNYPLRDGIDDESYEAIFKPVMSKVMEMFQPSAVVLQCGSDSLSGDRLGCFNLTIKGHAKCVEFVKSFNLPMLMLGGGGYTIRNVARCWTYETAVALD | no binding |
| AD-HDAC3 (deacetylase domain of HDAC3, GAL AD fusion) (enzyme, UniProt O15379 3-316, looked up, not shown: large carriers, domain: deacetylase domain) KTVAYFYDPDVGNFHYGAGHPMKPHRLALTHSLVLHYGLYKKMIVFKPYQASQHDMCRFHSEDYIDFLQRVSPTNMQGFTKSLNAFNVGDDCPVFPGLFEFCSRYTGASLQGATQLNNKICDIAINWAGGLHHAKKFEASGFCYVNDIVIGILELLKYHPRVLYIDIDIHHGDGVQEAFYLTDRVMTVSFHKYGNYFFPGTGDMYEVGAESGRYYCLNVPLRDGIDDQSYKHLFQPVINQVVDFYQPTCIVLQCGADSLGCDRLGCFNLSIRGHGECVEYVKSFNIPLLVLGGGGYTVRNVARCWTYETSLLVE | no binding |
